Data taken from patent US20190177417A1 (BIOATLA, published 2019).

T1: Axl protein (human, UniProt P30530 26-451)
T1 construct: extracellular domain; also called human Axl; hAxl
T1 sequence (looked up): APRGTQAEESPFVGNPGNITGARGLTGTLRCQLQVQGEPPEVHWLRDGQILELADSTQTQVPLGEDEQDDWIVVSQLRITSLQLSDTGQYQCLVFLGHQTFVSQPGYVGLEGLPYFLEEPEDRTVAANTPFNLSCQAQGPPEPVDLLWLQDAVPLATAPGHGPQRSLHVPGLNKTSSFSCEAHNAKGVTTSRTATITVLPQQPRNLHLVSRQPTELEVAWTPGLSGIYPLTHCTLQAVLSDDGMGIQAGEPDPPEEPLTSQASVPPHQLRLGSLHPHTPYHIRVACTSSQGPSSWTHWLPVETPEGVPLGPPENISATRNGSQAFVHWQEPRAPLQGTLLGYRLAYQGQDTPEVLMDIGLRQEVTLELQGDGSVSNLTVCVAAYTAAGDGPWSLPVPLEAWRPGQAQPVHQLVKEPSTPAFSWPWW


What was measured:
Axl protein [1] = target: T1, Axl protein; test: ELISA, 1:3 dilution, pH 6.0 over pH 7.4
Axl protein [2] = target: T1, Axl protein; test: ELISA, 1:9 dilution, pH 6.0 over pH 7.4

| Binder | Affinity ELISA CPE mutant ratio (1:3, pH 6.0/7.4) (Axl protein [1]) [ratio] | Affinity ELISA CPE mutant ratio (1:9, pH 6.0/7.4) (Axl protein [2]) [ratio] |
| --- | --- | --- |
| LC-V029W (antibody, V domains shown) VH: EVQLVQSGAEVKKPGATVKISCKVSGYSFTGHTMNWIRQPPGKGLEWIGLIKPSNGGTSYNQKFKGRVTISADKSISTAYLQWSSLKASDTAMYYCAHGHYESYFAMDYWGQGTLVTVSS VL: DIQMTQSPSSLSASVGDRVTITCKASQDWSSAVAWYQQKPGQAPRLLIYWASTRHTGVPSRFSGSGSGTEFTLTISSLQPDDFATYYCQEHFSTPLTFGQGTKVEIK | 2.31 | 2.35 |
| LC-A032M (antibody, V domains shown) VH: EVQLVQSGAEVKKPGATVKISCKVSGYSFTGHTMNWIRQPPGKGLEWIGLIKPSNGGTSYNQKFKGRVTISADKSISTAYLQWSSLKASDTAMYYCAHGHYESYFAMDYWGQGTLVTVSS VL: DIQMTQSPSSLSASVGDRVTITCKASQDVSSMVAWYQQKPGQAPRLLIYWASTRHTGVPSRFSGSGSGTEFTLTISSLQPDDFATYYCQEHFSTPLTFGQGTKVEIK | 4.76 | 2.92 |
| LC-H091Y (antibody, V domains shown) VH: EVQLVQSGAEVKKPGATVKISCKVSGYSFTGHTMNWIRQPPGKGLEWIGLIKPSNGGTSYNQKFKGRVTISADKSISTAYLQWSSLKASDTAMYYCAHGHYESYFAMDYWGQGTLVTVSS VL: DIQMTQSPSSLSASVGDRVTITCKASQDVSSAVAWYQQKPGQAPRLLIYWASTRHTGVPSRFSGSGSGTEFTLTISSLQPDDFATYYCQEYFSTPLTFGQGTKVEIK | 3.93 | 5.13 |
| LC-F092E (antibody, V domains shown) VH: EVQLVQSGAEVKKPGATVKISCKVSGYSFTGHTMNWIRQPPGKGLEWIGLIKPSNGGTSYNQKFKGRVTISADKSISTAYLQWSSLKASDTAMYYCAHGHYESYFAMDYWGQGTLVTVSS VL: DIQMTQSPSSLSASVGDRVTITCKASQDVSSAVAWYQQKPGQAPRLLIYWASTRHTGVPSRFSGSGSGTEFTLTISSLQPDDFATYYCQEHESTPLTFGQGTKVEIK | 1.76 | 2 |
| LC-W050F (antibody, V domains shown) VH: EVQLVQSGAEVKKPGATVKISCKVSGYSFTGHTMNWIRQPPGKGLEWIGLIKPSNGGTSYNQKFKGRVTISADKSISTAYLQWSSLKASDTAMYYCAHGHYESYFAMDYWGQGTLVTVSS VL: DIQMTQSPSSLSASVGDRVTITCKASQDVSSAVAWYQQKPGQAPRLLIYFASTRHTGVPSRFSGSGSGTEFTLTISSLQPDDFATYYCQEHFSTPLTFGQGTKVEIK | 2.25 | 3.5 |
| LC-A032L (antibody, V domains shown) VH: EVQLVQSGAEVKKPGATVKISCKVSGYSFTGHTMNWIRQPPGKGLEWIGLIKPSNGGTSYNQKFKGRVTISADKSISTAYLQWSSLKASDTAMYYCAHGHYESYFAMDYWGQGTLVTVSS VL: DIQMTQSPSSLSASVGDRVTITCKASQDVSSLVAWYQQKPGQAPRLLIYWASTRHTGVPSRFSGSGSGTEFTLTISSLQPDDFATYYCQEHFSTPLTFGQGTKVEIK | 1.98 | 2.27 |
| LC-F092G (antibody, V domains shown) VH: EVQLVQSGAEVKKPGATVKISCKVSGYSFTGHTMNWIRQPPGKGLEWIGLIKPSNGGTSYNQKFKGRVTISADKSISTAYLQWSSLKASDTAMYYCAHGHYESYFAMDYWGQGTLVTVSS VL: DIQMTQSPSSLSASVGDRVTITCKASQDVSSAVAWYQQKPGQAPRLLIYWASTRHTGVPSRFSGSGSGTEFTLTISSLQPDDFATYYCQEHGSTPLTFGQGTKVEIK | 3.69 | 4.76 |
| LC-A034D (antibody, V domains shown) VH: EVQLVQSGAEVKKPGATVKISCKVSGYSFTGHTMNWIRQPPGKGLEWIGLIKPSNGGTSYNQKFKGRVTISADKSISTAYLQWSSLKASDTAMYYCAHGHYESYFAMDYWGQGTLVTVSS VL: DIQMTQSPSSLSASVGDRVTITCKASQDVSSAVDWYQQKPGQAPRLLIYWASTRHTGVPSRFSGSGSGTEFTLTISSLQPDDFATYYCQEHFSTPLTFGQGTKVEIK | 3 | 2.6 |
| LC-H091V (antibody, V domains shown) VH: EVQLVQSGAEVKKPGATVKISCKVSGYSFTGHTMNWIRQPPGKGLEWIGLIKPSNGGTSYNQKFKGRVTISADKSISTAYLQWSSLKASDTAMYYCAHGHYESYFAMDYWGQGTLVTVSS VL: DIQMTQSPSSLSASVGDRVTITCKASQDVSSAVAWYQQKPGQAPRLLIYWASTRHTGVPSRFSGSGSGTEFTLTISSLQPDDFATYYCQEVFSTPLTFGQGTKVEIK | 4.13 | 1.17 |
| LC-F092C (antibody, V domains shown) VH: EVQLVQSGAEVKKPGATVKISCKVSGYSFTGHTMNWIRQPPGKGLEWIGLIKPSNGGTSYNQKFKGRVTISADKSISTAYLQWSSLKASDTAMYYCAHGHYESYFAMDYWGQGTLVTVSS VL: DIQMTQSPSSLSASVGDRVTITCKASQDVSSAVAWYQQKPGQAPRLLIYWASTRHTGVPSRFSGSGSGTEFTLTISSLQPDDFATYYCQEHCSTPLTFGQGTKVEIK | 3.86 | 4.58 |

Other lines, results leading:

| Affinity ELISA CPE mutant ratio (1:3, pH 6.0/7.4) (Axl protein [1]) [ratio] | Affinity ELISA CPE mutant ratio (1:9, pH 6.0/7.4) (Axl protein [2]) [ratio] | Binder |
| --- | --- | --- |
| 1.76 | 1.34 | LC-H091S (antibody, V domains shown) VH: EVQLVQSGAEVKKPGATVKISCKVSGYSFTGHTMNWIRQPPGKGLEWIGLIKPSNGGTSYNQKFKGRVTISADKSISTAYLQWSSLKASDTAMYYCAHGHYESYFAMDYWGQGTLVTVSS VL: DIQMTQSPSSLSASVGDRVTITCKASQDVSSAVAWYQQKPGQAPRLLIYWASTRHTGVPSRFSGSGSGTEFTLTISSLQPDDFATYYCQESFSTPLTFGQGTKVEIK |
| 2 | 1.41 | LC-A034Q (antibody, V domains shown) VH: EVQLVQSGAEVKKPGATVKISCKVSGYSFTGHTMNWIRQPPGKGLEWIGLIKPSNGGTSYNQKFKGRVTISADKSISTAYLQWSSLKASDTAMYYCAHGHYESYFAMDYWGQGTLVTVSS VL: DIQMTQSPSSLSASVGDRVTITCKASQDVSSAVQWYQQKPGQAPRLLIYWASTRHTGVPSRFSGSGSGTEFTLTISSLQPDDFATYYCQEHFSTPLTFGQGTKVEIK |
| 3.78 | 3.78 | LC-H091T (antibody, V domains shown) VH: EVQLVQSGAEVKKPGATVKISCKVSGYSFTGHTMNWIRQPPGKGLEWIGLIKPSNGGTSYNQKFKGRVTISADKSISTAYLQWSSLKASDTAMYYCAHGHYESYFAMDYWGQGTLVTVSS VL: DIQMTQSPSSLSASVGDRVTITCKASQDVSSAVAWYQQKPGQAPRLLIYWASTRHTGVPSRFSGSGSGTEFTLTISSLQPDDFATYYCQETFSTPLTFGQGTKVEIK |
| 2.97 | 2.94 | LC-F092D (antibody, V domains shown) VH: EVQLVQSGAEVKKPGATVKISCKVSGYSFTGHTMNWIRQPPGKGLEWIGLIKPSNGGTSYNQKFKGRVTISADKSISTAYLQWSSLKASDTAMYYCAHGHYESYFAMDYWGQGTLVTVSS VL: DIQMTQSPSSLSASVGDRVTITCKASQDVSSAVAWYQQKPGQAPRLLIYWASTRHTGVPSRFSGSGSGTEFTLTISSLQPDDFATYYCQEHDSTPLTFGQGTKVEIK |
| 1.93 | 2 | LC-F092N (antibody, V domains shown) VH: EVQLVQSGAEVKKPGATVKISCKVSGYSFTGHTMNWIRQPPGKGLEWIGLIKPSNGGTSYNQKFKGRVTISADKSISTAYLQWSSLKASDTAMYYCAHGHYESYFAMDYWGQGTLVTVSS VL: DIQMTQSPSSLSASVGDRVTITCKASQDVSSAVAWYQQKPGQAPRLLIYWASTRHTGVPSRFSGSGSGTEFTLTISSLQPDDFATYYCQEHNSTPLTFGQGTKVEIK |
| 2.63 | 2.4 | LC-A034N (antibody, V domains shown) VH: EVQLVQSGAEVKKPGATVKISCKVSGYSFTGHTMNWIRQPPGKGLEWIGLIKPSNGGTSYNQKFKGRVTISADKSISTAYLQWSSLKASDTAMYYCAHGHYESYFAMDYWGQGTLVTVSS VL: DIQMTQSPSSLSASVGDRVTITCKASQDVSSAVNWYQQKPGQAPRLLIYWASTRHTGVPSRFSGSGSGTEFTLTISSLQPDDFATYYCQEHFSTPLTFGQGTKVEIK |
| 1.94 | 1.8 | LC-V029G (antibody, V domains shown) VH: EVQLVQSGAEVKKPGATVKISCKVSGYSFTGHTMNWIRQPPGKGLEWIGLIKPSNGGTSYNQKFKGRVTISADKSISTAYLQWSSLKASDTAMYYCAHGHYESYFAMDYWGQGTLVTVSS VL: DIQMTQSPSSLSASVGDRVTITCKASQDGSSAVAWYQQKPGQAPRLLIYWASTRHTGVPSRFSGSGSGTEFTLTISSLQPDDFATYYCQEHFSTPLTFGQGTKVEIK |
| 2.6 | 2.65 | LC-V029N (antibody, V domains shown) VH: EVQLVQSGAEVKKPGATVKISCKVSGYSFTGHTMNWIRQPPGKGLEWIGLIKPSNGGTSYNQKFKGRVTISADKSISTAYLQWSSLKASDTAMYYCAHGHYESYFAMDYWGQGTLVTVSS VL: DIQMTQSPSSLSASVGDRVTITCKASQDNSSAVAWYQQKPGQAPRLLIYWASTRHTGVPSRFSGSGSGTEFTLTISSLQPDDFATYYCQEHFSTPLTFGQGTKVEIK |
